Measurements taken from PMC11148069 (The EMBO Journal, 2024).

Columns and labels:
[1] = biological target: T1, recombinant human Nup93 target (BLI) (human, UniProt Q8N1F7); assay: BLI; nanobodies (biotin-[PEG]3-maleimide on two ectopic cysteines) immobilised on High Precision Streptavidin sensors; target proteins at 30–100 nM; 25 °C; PBS pH 7.4, 0.02% Tween-20, 0.1% BSA; apparent KDs; conditions: both partners purified
T1 construct: Nup93, human; the immunogen was the Nup93 α-solenoid domain; also called hNup93; source: E. coli NEB Express, purified

[2] = biological target: T2, recombinant Xenopus Nup93 target (BLI) (Xenopus, UniProt Q7ZX96); assay: as above; conditions: both partners purified
T2 construct: Nup93, Xenopus; the immunogen was the Nup93 α-solenoid domain; also called xNup93; source: E. coli NEB Express, purified

[3] = biological target: T3, hNup35 (residues 173–248), RRM domain (human, UniProt Q8NFH5); assay: crystal structure; hNup35(173–248)·xhNup35-Nb1t complex; 0.05 M HEPES pH 6.5, 25% PEG400, 0.05 M NaCl, 0.01 M MgCl2; conditions: both partners purified
T3 construct: Nup35 (also called Nup53 or MP44), human, RRM domain, residues 173-248; also called homodimeric RRM domain of Homo sapiens (h)Nup35; Nup35 RRM; source: E. coli NEB Express, purified, untagged

[4] = biological target: the molecule itself; assay: as above
[5] = biological target: T4, xNup93(168–820), α-solenoid domain of Xenopus laevis Nup93 (Xenopus laevis, UniProt Q7ZX96); assay: cryo-EM structure; equimolar trimeric xNup93(168–820)·xhNup93-Nb4i·xNup93-Nb2t complex; 4.4 Å reconstruction; conditions: both partners purified
T4 construct: also called Nup93 α-solenoid domain; source: E. coli NEB Express, purified, untagged

[6] = biological target: T5, xNup98-APD (residues 714–864), autoproteolytic domain of Xenopus tropicalis Nup98 (Xenopus tropicalis); assay: crystal structure; xNup98-APD(714–864) with xhNup98-Nb2i or xhNup98-Nb3i; 2.5% PEG6000, 25% PEG MME500, 100 mM Tris/HCl pH 9; conditions: both partners purified
T5 construct: also called APD of Xenopus tropicalis xNup98; source: E. coli NEB Express, purified, untagged
T5 chain: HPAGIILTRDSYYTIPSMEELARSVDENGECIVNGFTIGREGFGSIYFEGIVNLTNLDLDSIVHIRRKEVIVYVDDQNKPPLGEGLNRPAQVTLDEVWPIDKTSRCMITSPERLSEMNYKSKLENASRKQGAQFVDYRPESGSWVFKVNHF

[7] = biological target: T6, His14-NEDD8-tagged APD of xtNup98 (715–866) (Xenopus tropicalis, UniProt A0A1B8XZT4); assay: pull-down; His14-NEDD8-APD of xtNup98 immobilised on Ni2+ chelate matrix, incubated with xNup98-Nb1t or xhNup98-Nb2i, then xNup96(1–20)-RFP or xtNup88(2–500) added; eluted by NEDP1; SDS-PAGE/Coomassie; conditions: both partners purified
T6 construct: held on the Ni2+ chelate matrix by the tag; the tag was cleaved by NEDP1 only for elution; also called Nup98-APD; immobilized APD; source: E. coli NEB Express, purified

human Nup35, endogenous = biological target: T7, human Nup35, endogenous (Homo sapiens (HeLa), UniProt Q8NFH5); assay: immunostaining of cells or tissue; sfGFP-Nup107 HeLa cells, PFA-fixed and Triton X-100-permeabilized or unfixed and digitonin-semi-permeabilized; 35 nM Alexa Fluor 647-labelled nanobody, 30 min, RT; confocal microscopy; conditions: one partner purified
T7 construct: Nup35, human; also called hNup35; source: endogenous, in NPCs of HeLa cells

[8] = biological target: T8, Xenopus Nup35, endogenous (Xenopus laevis (egg extract), UniProt Q6INW0); assay: immunostaining of cells or tissue; digitonin-semi-permeabilized sfGFP-Nup107 HeLa cells incubated 2 h at RT with buffer or Xenopus egg extract, energy mix and 35 nM fluorescent tracking nanobodies; Airyscan confocal microscopy; conditions: one partner purified
T8 construct: Nup35 of Xenopus egg extract; also called xNup35; source: endogenous, from Xenopus egg extract, in newly assembled NPCs

[9] = biological target: T9, Xenopus Nup98, endogenous (Xenopus laevis (egg extract, assumed), UniProt A0A8J1MFV7); assay: as above; conditions: one partner purified
T9 construct: Nup98, the cut product of the Nup98–Nup96 fusion protein (Nup196); the egg extract contains the already cleaved entities; also called xNup98; source: endogenous, soluble fraction of Xenopus egg extract; also as recruited from the extract to NPCs

human Nup93, endogenous = biological target: T10, human Nup93, endogenous (human (endogenous in HeLa), UniProt Q8N1F7); assay: pull-down; (biotin)-Avi-SUMO^Eu1-nanobodies on streptavidin-agarose, incubated with HeLa lysate or soluble fraction of Xenopus egg extract, 40 min, 4 °C; eluted by SENP^EuB; SDS-PAGE/Coomassie, identities confirmed by mass spectrometry; conditions: one partner purified
T10 construct: Nup93, human; also called hNup93; source: endogenous, HeLa lysate

[10] = biological target: T11, Xenopus Nup93, endogenous (Xenopus (endogenous in egg extract), UniProt Q7ZX96); assay: as above; conditions: one partner purified
T11 construct: Nup93 of Xenopus egg extract; also called xNup93; source: endogenous, soluble fraction of Xenopus egg extract

human Nup98, endogenous = biological target: T12, human Nup98, endogenous (human (endogenous in HeLa), UniProt P52948); assay: as above; conditions: one partner purified
T12 construct: Nup98, the cut product of the Nup98–Nup96 fusion protein, human; also called hNup98; source: endogenous, HeLa lysate; also in NPCs of semi-permeabilized HeLa cells

[11] = biological target: T9, Xenopus Nup98, endogenous; assay: as above; conditions: one partner purified

T4 sequence (Q7ZX96 168-820): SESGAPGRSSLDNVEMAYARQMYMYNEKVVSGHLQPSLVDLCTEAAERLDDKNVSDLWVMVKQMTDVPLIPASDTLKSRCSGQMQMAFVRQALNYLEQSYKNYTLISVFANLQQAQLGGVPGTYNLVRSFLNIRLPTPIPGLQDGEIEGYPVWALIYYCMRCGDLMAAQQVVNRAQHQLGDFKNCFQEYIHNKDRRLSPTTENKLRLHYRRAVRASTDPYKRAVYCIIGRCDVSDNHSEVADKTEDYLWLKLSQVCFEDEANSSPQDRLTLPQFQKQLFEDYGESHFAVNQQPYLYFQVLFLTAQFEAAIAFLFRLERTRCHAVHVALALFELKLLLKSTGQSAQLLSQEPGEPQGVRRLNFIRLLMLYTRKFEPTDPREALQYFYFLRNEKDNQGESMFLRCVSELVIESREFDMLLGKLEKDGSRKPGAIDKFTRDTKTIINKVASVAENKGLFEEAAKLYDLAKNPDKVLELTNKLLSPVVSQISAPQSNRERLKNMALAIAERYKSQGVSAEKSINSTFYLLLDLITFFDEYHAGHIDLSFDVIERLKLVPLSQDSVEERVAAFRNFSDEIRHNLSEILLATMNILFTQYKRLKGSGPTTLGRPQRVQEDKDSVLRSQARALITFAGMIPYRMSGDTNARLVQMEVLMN
T7 sequence (Q8NFH5 whole entry): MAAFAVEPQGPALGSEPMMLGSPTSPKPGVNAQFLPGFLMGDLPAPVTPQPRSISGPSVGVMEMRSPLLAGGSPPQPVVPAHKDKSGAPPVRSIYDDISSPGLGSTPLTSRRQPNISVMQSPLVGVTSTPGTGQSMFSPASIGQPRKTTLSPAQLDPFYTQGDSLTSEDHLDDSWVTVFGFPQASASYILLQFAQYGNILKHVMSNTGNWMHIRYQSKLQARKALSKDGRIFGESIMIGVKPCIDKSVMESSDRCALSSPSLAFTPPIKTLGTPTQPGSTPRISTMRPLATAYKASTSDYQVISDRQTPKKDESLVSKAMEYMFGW
T12 sequence (P52948 1-880): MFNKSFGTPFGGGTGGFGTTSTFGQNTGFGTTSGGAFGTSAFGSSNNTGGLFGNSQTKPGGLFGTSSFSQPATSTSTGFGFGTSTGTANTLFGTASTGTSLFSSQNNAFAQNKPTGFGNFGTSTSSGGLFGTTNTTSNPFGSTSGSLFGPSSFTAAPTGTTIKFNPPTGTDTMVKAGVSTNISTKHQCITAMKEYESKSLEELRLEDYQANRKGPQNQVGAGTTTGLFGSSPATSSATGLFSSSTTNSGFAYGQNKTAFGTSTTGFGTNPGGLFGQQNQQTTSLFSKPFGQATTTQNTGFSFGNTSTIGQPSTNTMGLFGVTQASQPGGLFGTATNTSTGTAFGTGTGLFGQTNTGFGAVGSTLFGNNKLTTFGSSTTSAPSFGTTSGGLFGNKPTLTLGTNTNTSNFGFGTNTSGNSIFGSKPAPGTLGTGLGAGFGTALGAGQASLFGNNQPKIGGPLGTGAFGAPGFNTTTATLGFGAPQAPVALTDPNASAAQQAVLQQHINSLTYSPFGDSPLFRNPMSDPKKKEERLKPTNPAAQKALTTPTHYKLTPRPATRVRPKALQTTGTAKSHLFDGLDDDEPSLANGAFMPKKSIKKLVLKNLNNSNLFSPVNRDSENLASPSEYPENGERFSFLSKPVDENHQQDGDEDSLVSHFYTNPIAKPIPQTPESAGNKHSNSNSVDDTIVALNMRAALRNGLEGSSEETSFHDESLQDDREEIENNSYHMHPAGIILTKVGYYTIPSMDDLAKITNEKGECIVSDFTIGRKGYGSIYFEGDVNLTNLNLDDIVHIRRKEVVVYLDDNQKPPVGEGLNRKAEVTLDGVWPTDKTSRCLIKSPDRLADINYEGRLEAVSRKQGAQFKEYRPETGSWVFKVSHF
T11 sequence (Q7ZX96 whole entry): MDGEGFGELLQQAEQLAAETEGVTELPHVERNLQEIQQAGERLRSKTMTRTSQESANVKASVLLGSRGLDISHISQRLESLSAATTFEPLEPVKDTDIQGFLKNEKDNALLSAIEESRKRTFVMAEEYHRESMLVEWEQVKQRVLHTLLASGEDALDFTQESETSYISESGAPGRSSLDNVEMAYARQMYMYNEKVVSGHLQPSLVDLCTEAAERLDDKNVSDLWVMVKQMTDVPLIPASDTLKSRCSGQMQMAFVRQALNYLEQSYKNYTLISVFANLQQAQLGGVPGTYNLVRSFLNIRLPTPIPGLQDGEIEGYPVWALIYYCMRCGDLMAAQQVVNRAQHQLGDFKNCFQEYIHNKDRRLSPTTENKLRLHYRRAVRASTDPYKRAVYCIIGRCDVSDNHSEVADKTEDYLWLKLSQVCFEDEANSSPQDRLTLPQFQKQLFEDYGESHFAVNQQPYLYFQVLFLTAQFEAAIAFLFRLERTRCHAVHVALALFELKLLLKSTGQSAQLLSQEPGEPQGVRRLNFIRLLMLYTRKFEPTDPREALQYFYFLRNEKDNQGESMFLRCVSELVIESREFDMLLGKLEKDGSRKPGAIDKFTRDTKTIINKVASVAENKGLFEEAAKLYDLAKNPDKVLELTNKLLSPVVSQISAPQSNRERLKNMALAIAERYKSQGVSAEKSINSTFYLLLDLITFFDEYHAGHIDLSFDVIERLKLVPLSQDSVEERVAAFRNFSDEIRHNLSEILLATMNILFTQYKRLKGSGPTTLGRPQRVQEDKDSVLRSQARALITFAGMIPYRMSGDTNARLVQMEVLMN
T2 sequence (Q7ZX96 whole entry, the tested form may be a part): as the sequence (Q7ZX96 whole entry) above
T10 sequence (Q8N1F7 whole entry): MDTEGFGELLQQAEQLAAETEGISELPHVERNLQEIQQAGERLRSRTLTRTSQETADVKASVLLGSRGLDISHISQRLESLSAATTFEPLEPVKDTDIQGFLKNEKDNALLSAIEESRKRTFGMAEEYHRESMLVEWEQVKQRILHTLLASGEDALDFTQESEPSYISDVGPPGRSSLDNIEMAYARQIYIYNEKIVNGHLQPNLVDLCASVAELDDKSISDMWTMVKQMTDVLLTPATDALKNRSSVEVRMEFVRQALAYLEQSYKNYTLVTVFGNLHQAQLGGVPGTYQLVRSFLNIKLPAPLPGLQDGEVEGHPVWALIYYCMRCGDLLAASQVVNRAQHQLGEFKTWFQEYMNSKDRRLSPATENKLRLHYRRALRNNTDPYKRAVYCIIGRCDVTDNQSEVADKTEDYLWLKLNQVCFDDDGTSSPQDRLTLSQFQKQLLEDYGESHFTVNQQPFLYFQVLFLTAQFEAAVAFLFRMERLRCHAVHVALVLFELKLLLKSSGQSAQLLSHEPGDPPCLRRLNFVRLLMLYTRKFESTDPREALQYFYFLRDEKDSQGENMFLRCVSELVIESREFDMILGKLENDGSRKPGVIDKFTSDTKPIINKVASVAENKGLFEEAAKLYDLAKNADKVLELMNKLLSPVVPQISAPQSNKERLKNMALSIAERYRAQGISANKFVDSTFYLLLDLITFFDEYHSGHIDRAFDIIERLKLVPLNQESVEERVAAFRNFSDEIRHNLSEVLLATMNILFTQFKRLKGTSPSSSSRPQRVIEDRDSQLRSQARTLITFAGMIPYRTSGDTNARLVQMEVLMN
T1 sequence (Q8N1F7 whole entry, the tested form may be a part): as the sequence (Q8N1F7 whole entry) above

B1: xhNup93-Nb4i, biotinylated for BLI (VHH)
VHH: QVQLVESGGGVVQTGDSLMLSCTVSGHTIDNWAMGWFRQTPRKQREFVAAIDKRGTGAIYGNSVKGRFTVSRDNAKNMVYLRMNSLKPEDTAVYFCAVDQLNAGLGDVSYDYDYWGQGTQVTVSS
notes: as the VHH of m1 with two ectopic cysteines; source: E. coli SHuffle, purified
binding result [1]: binds | binding result [2]: binds

B2: xhNup35-Nb1t (VHH)
VHH: QVQLVESGGGLVQAGGSLRLSCVGTGNISSAYTMAWYRQAAGKEREVVAGILNGGSTHYADSVKGRFTISRDNAKNTVYLQMNSLQPEDTGVYCCHVVIESTRFVYDHYWGQGTRVTVSS
notes: they are in PDB 8OZB (complex with the human Nup35 RRM homodimer); form of the crystal structure; also called cross-specific anti-Nup35 nanobody; source: E. coli SHuffle, purified (Ni2+ chelate, NEDP1 protease elution, SEC)
binding result [3]: binds

B3: hNup35 (residues 173–248), RRM domain (domain or fragment, human, UniProt Q8NFH5 173-248, looked up)
chain: DSWVTVFGFPQASASYILLQFAQYGNILKHVMSNTGNWMHIRYQSKLQARKALSKDGRIFGESIMIGVKPCIDKSV
notes: Nup35 (also called Nup53 or MP44), human, RRM domain, residues 173-248; also called homodimeric RRM domain of Homo sapiens (h)Nup35; Nup35 RRM; source: E. coli NEB Express, purified, untagged
binding result [4]: binds

B4: xhNup93-Nb4i (VHH)
VHH: B1 VHH
notes: they are in PDB 8CDS (unliganded nanobody) and PDB 7ZOX (complex with xNup93); form used for the cryo-EM complex; for the unliganded crystal it was expressed as a His14-bdSUMO fusion and cleaved; source: E. coli SHuffle, purified (Ni2+ chelate, NEDP1 protease elution, SEC)
binding result [5]: binds

B5: xNup93-Nb2t (VHH)
VHH: DVQLVESGGGLVQPGGSLRLSCVASGFTFSRVGMGWVRQAPGKGLEWVSDINASGGTGYADSVKGRFAISRDNAKNTLYLQMNRLKPEDTAVYYCAKMMDTAMIEAGIIKPAGQGTQVTVSS
notes: they are in the PDB entry of the unliganded nanobody (printed as 8CDT in the methods and 8CD7 in the data availability) and in PDB 7ZOX; purified untagged in the cryo-EM complex; for the unliganded crystal expressed as a His14-bdSUMO fusion and cleaved; also called tracking nanobody xNup93-Nb2t; source: E. coli SHuffle, purified
binding result [5]: binds

B6: xhNup98-Nb2i (VHH)
VHH: QVQLVESGGGLAKPGGSLRLSCVATGTFRSMEDVGWYRQAPGKDRELVAEITTLGKVTYADSVKGRFTISRDDAKNAVYLQMSDLKSEDTAVYYCNIEADQTKGIGYVVYPYWGQGTRVTVSS
notes: they are in PDB 7NQA (complex with xNup98-APD); form of the crystal structure; also called xNup98-Nb2i; source: E. coli SHuffle, purified (Ni2+ chelate, NEDP1 protease elution, SEC)
binding result [6]: binds

B7: xhNup98-Nb3i (VHH)
VHH: QVQLVESGGGLVQAGGSLRLSCAASGRTFSTYAMGWFRQAPGKEREFVSACSWSGGITRYADSVKGRFTISRDNAKNTVYLQMNSLKPEDTAVYYCASAASSAAYSGAYYYTSYYDYWGQGTQVTVSS
notes: they are in PDB 7NOW (complex with xNup98-APD); form of the crystal structure; source: E. coli SHuffle, purified (Ni2+ chelate, NEDP1 protease elution, SEC)
binding result [6]: binds

B8: xhNup98-Nb2i (as added in the binding assay of Fig. 11C) (VHH)
VHH: B6 VHH
notes: as the VHH of m5; source: E. coli SHuffle, purified
binding result [7]: binds

B9: xNup98-Nb1t (as added in the binding assay of Fig. 11C) (VHH)
VHH: QVQLVESGGGPVEAGGSLRLSCAASGRSFSNSVMAWFRQAPGKEREFLSVLNWSSGRTSIADSVKGRFTMSRDPAKITVYLQMNGLKPEDTAVYYCAASNRGSLYTLDNQNRYEDWGQGTQVTVSS
notes: they are in PDB 5E0Q (xNup98-APD·xNup98-Nb1t complex, Pleiner et al, 2015); also called tracking nanobody xNup98-Nb1t; source: E. coli SHuffle, purified
binding result [7]: binds

B10: xhNup35-Nb1t, fluorophore-labelled (VHH)
VHH: B2 VHH
notes: as the VHH of m12 with engineered cysteines; source: E. coli SHuffle, purified, labelled with maleimide dye
binding result (human Nup35, endogenous): binds | binding result [8]: binds

B11: xNup98-Nb1t, fluorophore-labelled (VHH)
VHH: B9 VHH
notes: as the VHH of m10 with engineered cysteines; source: E. coli SHuffle, purified, labelled with maleimide dye
binding result [9]: binds

B12: (biotin)-Avi-SUMO^Eu1-xhNup93-Nb4i (VHH)
VHH: B1 VHH
notes: as the VHH of m1; the tag was cleaved by SENP^EuB only for elution; source: E. coli SHuffle, purified; not shown: Avi (biotinylated), N-terminal, kept; SUMO^Eu1, N-terminal, kept
binding result (human Nup93, endogenous): binds | binding result [10]: binds

B13: (biotin)-Avi-SUMO^Eu1-xhNup98-Nb2i (VHH)
VHH: B6 VHH
notes: as the VHH of m5; the tag was cleaved by SENP^EuB only for elution; source: E. coli SHuffle, purified; not shown: Avi (biotinylated), N-terminal, kept; SUMO^Eu1, N-terminal, kept
binding result (human Nup98, endogenous): binds | binding result [11]: binds
